Source: publication PMC8155215, “The splicing factor XAB2 interacts with ERCC1-XPF and XPG for R-loop processing”

Biological target: T1, recombinant human XAB2 (Homo sapiens, UniProt Q9HCS7 1-855)
T1 sequence: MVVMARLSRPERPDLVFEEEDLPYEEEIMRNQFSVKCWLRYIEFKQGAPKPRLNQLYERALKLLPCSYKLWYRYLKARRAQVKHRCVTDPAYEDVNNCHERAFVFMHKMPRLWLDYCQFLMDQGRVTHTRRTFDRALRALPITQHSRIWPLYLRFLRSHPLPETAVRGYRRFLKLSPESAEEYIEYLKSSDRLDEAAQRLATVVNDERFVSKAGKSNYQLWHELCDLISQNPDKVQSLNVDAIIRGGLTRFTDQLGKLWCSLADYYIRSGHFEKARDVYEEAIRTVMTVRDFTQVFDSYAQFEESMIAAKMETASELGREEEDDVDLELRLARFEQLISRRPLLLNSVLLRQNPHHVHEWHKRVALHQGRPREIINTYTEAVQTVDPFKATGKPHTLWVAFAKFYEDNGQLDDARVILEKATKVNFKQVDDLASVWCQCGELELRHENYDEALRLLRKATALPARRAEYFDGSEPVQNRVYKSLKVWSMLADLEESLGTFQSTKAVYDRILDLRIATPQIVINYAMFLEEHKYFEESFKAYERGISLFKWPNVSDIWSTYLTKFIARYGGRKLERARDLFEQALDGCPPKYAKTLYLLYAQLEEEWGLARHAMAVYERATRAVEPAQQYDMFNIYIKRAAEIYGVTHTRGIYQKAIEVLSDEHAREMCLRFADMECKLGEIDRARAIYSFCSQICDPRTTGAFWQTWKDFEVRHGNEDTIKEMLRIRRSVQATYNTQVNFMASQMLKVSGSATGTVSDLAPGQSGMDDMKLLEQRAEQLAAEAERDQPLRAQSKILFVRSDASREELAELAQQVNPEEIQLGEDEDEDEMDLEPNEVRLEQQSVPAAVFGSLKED
Assay: EMSA; 0.1-10 nmol protein, 100 pmol RNA; no consumption of RNA oligo; 10 mM Tris-HCl pH 8.0, 50 mM KCl, 10% glycerol, 0.5 mM EDTA, 0.5 mM DTT, 1 ug/ml BSA, 6 mM MgCl2, 30 min at 4 C, 10 ul, 100 pmol RNA; 4% native PAGE in 0.5x TBE pH 7.5
Details: protein: commercial; label: 5' biotin; single strand

Binder: AUUGGAACGAUACAGAGAAGAU (ssRNA) [XAB2RBS]
- binding result: no binding
